# B1: cowpea chlorotic mottle virus (CCMV) capsid protein (natural protein, UniProt P03601 1-190, looked up)
# chain: MSTVGTGKLTRAQRRAAARKNKRNTRVVQPVIVEPIASGQGKAIKAWTGYSVSKWTASCAAAEAKVTSAITISLPNELSSERNKQLKVGRVLLWLGLLPSVSGTVKSCVTETQTTAAASFQVALAVADNSKDVVAAMYPEAFKGITLEQLTADLTIYLYSSAALTEGDVIVHLEVEHVRPTFDDSFTPVY
# Biological target: the molecule itself
# Test: SEC + other: DLS + other: TEM
protein,measurement,value
B1,stoichiometry N,60

# Reference: paper PMC6875872 (The Journal of Physical Chemistry. B, 2019)
